Laboratory results reported in US11371056B2, “HPPD variants and methods of use” (BASF Agricultural Solutions Seed US LLC, priority 2017, dated 2022).

Tested on: Pseudomonas fluorescens HPPD polypeptide (wild-type and mutants)
Experiment: Coupled HPPD activity assay: turnover and residual turnover in crude HPPD polypeptide extracts with and without Cmpd. 1
Format: biochemical
Conditions: for turnover and residual turnover, comparison in words: 100 μM Cmpd. 1, Table 3; for Residual turnover [%]: 100 μM Cmpd. 1, normalised to turnover without inhibitor; for Turnover: absence of Cmpd. 1; for Turnover / Residual turnover: changes in absorbance (OD) at 320 nm in the coupled assay, 30 min; for Residual turnover: presence of 100 μM Cmpd. 1
Description: For the generation of crude HPPD polypeptide extract in micro titer plates (MTP) for the determination of residual activity in inhibition assays, cells were grown in 40 or 150 μl LB medium containing 1% Glucose (Merck, Darmstadt, Germany) and 100 μg/ml ampicillin in a standard 96 well plate (Thermo Fisher Scientific, Waltham, USA) incubated for about 18 h in a humidity incubator at 37° C. 30 μl of this starter culture were added to 600 μl LB medium containing 100 μg/ml ampicillin and 150 mM Hepes (Merck, Darmstadt, Germany) as inoculum for the expression culture in 96 well plates (2 ml deep wells; HJ Bioanalytik, Erkelenz, Germany). The plates were sealed by an aluminium foil, and cells were incubated for 5 h at 37° C. on a plate shaker at 750 rpm. The expression was induced by addition of IPTG in a final concentration of 1 mM followed by further sealed incubation for about 18 h at 30° C. on a plate shaker at 750 rpm.
Cells were harvested by centrifugation at 4° C., 2500 g for 15 min discarding the supernatant. Cell pellets were stored at −80° C. and lysed in 250 μl 1× BugBuster® (Merck, Darmstadt, Germany) in 140 mM Tris (pH 7.8), with 1:25000 diluted BNase® (Qiagen, Hilden, Germany) by incubation of the resuspended cells for 30 min at 4° C. and 1000 rpm. Lysates were clarified by centrifugation for 15 min at 4° C., 2500 g, and 150 μl supernatant were transferred in standard 96 well plate (Thermo Fisher Scientific, Waltham, USA) for subsequent testing in quadruplets.
The activity of HPPD polypeptides was determined in absence or presence of HPPD inhibitors using the coupled HPPD activity assay (FIG. 1).
For the determination of the residual activity, the apparent kinetic constant (kapp) of the determined substrate conversion was measured as kinetic changes in absorbance (OD) at 320 nm in a coupled assay, in that homogentisate (HGA) formed by HPPD from HPP is directly converted into the well absorbing molecule maleylacetoacetate (MAA) by a second enzyme homogentisate dioxygenase (HGD), applied in excess uniformly in all assays (see FIG. 1). The measurements were performed in 384 micro titer plates (Greiner Bio-One GmbH, Frickenhausen, Germany) by plate readers (Tecan infinite M1000 or M1000PRO, Tecan, Männedorf, Switzerland). The kcat/kM ratio of an enzymatic activity is proportional to the apparent kinetic constant kapp and is proportional to kcat/kM*[E] ([E]=enzyme concentration). […] As both kapp measurements in the presence and absence of inhibitor were performed by use of the identical enzyme sample, crude or purified, and thereby at the same enzyme concentration, the enzyme concentration eliminates from the calculation of residual activity and the ratio of both kapp directly indicates the change of kM due to the inhibition.
The assay solution used for determination of residual activities in raw HPPD polypeptide samples was composed by 200 mM sodium phosphate (Merck, Darmstadt, Germany, pH 7.0), 5 mM MgCl2 (Merck, Darmstadt, Germany), 20 mM ascorbate (Sigma-Aldrich, St. Louis, USA), 1 mM DTT (Sigma-Aldrich, St. Louis, USA), 0.1% Pluronic F-68 (Sigma-Aldrich, St. Louis, USA), 40 μM FeSO4 (Sigma-Aldrich, St. […] Louis, USA) and equilibrated for 20 min on ice.

Molecule	turnover and residual turnover, comparison in words	Residual turnover [%]	Turnover	Residual turnover	time-course of inhibition, inhibitor characteristic (HPPD inhibitor herbicides, FIG. 2: 200 μM HPP, 0, 4 or 13 μM Cmpd. 1)
SEQ ID NO:61 (protein, mutant HPPD polypeptide) MADLYENPMGLMGFEFIEFASPTPGTLEPIFEIMGFTKVATHRSKNVHLYRQGEINLILNNEPNSIASYFAAEHGPSVCGMAFRVKDSQKAYNRALELGAQPIHIDTGPMELNLPAIKGIGGAPLYLIDRFGEGSSIYDIDFVYLEGVERNPVGAGLKVIDHLTHNVYRGRMVYWANFYEKLFNFREARYFDIKGEYTGLTSKAMSAPDGMIKIPLNEESSKGAGQIEEFLMQFNGEGIQHVAFLTDDLVKTWDALKKIGMRFLTAPGDEYYEMLEGRLPDHGEPVDQLQARGILLDGSSVEGDKRLLLQIFSEQLMGPVFFEFIQRKGDDGFGPDSFKVLFEQMERDQVRRGVLTAD	decreases the turnover and residual turnover	56	0.206	0.116	
SEQ ID NO:1: reference wild-type Pseudomonas fluorescens HPPD polypeptide (protein, listed as Pseudomonas fluorescens, 4-hydroxyphenylpyruvate dioxygenase (HPPD; Pseudomonas fluorescens) (1)..(358)) MADLYENPMGLMGFEFIEFASPTPGTLEPIFEIMGFTKVATHRSKNVHLYRQGEINLILNNEPNSIASYFAAEHGPSVCGMAFRVKDSQKAYNRALELGAQPIHIDTGPMELNLPAIKGIGGAPLYLIDRFGEGSSIYDIDFVYLEGVERNPVGAGLKVIDHLTHNVYRGRMVYWANFYEKLFNFREARYFDIKGEYTGLTSKAMSAPDGMIRIPLNEESSKGAGQIEEFLMQFNGEGIQHVAFLTDDLVKTWDALKKIGMRFMTAPPDTYYEMLEGRLPDHGEPVDQLQARGILLDGSSVEGDKRLLLQIFSETLMGPVFFEFIQRKGDDGFGEGNFKALFESIERDQVRRGVLTAD				0.042	slow and tight binding inhibitor
SEQ ID NO:57 (protein, mutant HPPD polypeptide) MADLYENPMGLMGFEFIEFASPTPGTLEPIFEIMGFTKVATHRSKNVHLYRQGEINLILNNEPNSIASYFAAEHGPSVCGMAFRVKDSQKAYNRALELGAQPIHIDTGPMELNLPAIKGIGGAPLYLIDRFGEGSSIYDIDFVYLEGVERNPVGAGLKVIDHLTHNVYRGRMVYWANFYEKLFNFREARYFDIKGEYTGLTSKAMSAPDGMIKIPLNEESSKGAGQIEEFLMQFNGEGIQHVAFLTDDLVKTWDALKKIGMRFMTAPGDEYYEMLEGRLPDHGEPVDQLQARGILLDGSSVEGDKRLLLQIFSEQLMGPVFFEFIQRKGDDGFGPHSFKVLFEQMERDQVRRGVLTAD	increases significantly the absolute turnover	68	0.34	0.232	
SEQ ID NO:38 (protein, mutant HPPD polypeptide) MADLYENPMGLMGFEFIEFASPTPGTLEPIFEIMGFTKVATHRSKNVHLYRQGEINLILNNEPNSIASYFAAEHGPSVCGMAFRVKDSQKAYNRALELGAQPIHIDTGPMELNLPAIKGIGGAPLYLIDRFGEGSSIYDIDFVYLEGVERNPVGAGLKVIDHLTHNVYRGRMVYWANFYEKLFNFREARYFDIKGEYTGLTSKAMSAPDGMIRIPLNEESSKGAGQIEEFLMQFNGEGIQHVAFLTDDLVKTWDALKKIGMRFMTAPGDEYYEMLEGRLPDHGEPVDQLQARGILLDGSSVEGDKRLLLQIFSETLMGPVFFEFIQRKGDDGFGPHSFKVLFEQMERDQVRRGVLTAD	does not show a significant turnover		0.008	0.007	
SEQ ID NO:26 (protein, mutant HPPD polypeptide) MADLYENPMGLMGFEFIEFASPTPGTLEPIFEIMGFTKVATHRSKNVHLYRQGEINLILNNEPNSIASYFAAEHGPSVCGMAFRVKDSQKAYNRALELGAQPIHIDTGPMELNLPAIKGIGGAPLYLIDRFGEGSSIYDIDFVYLEGVERNPVGAGLKVIDHLTHNVYRGRMVYWANFYEKLFNFREARYFDIKGEYTGLTSKAMSAPDGMIRIPLNEESSKGAGQIEEFLMQFNGEGIQHVAFLTDDLVKTWDALKKIGMRFLTAPGDEYYEMLEGRLPDHGEPVDQLQARGILLDGSSVEGDKRLLLQIFSEQLMGPVFFEFIQRKGDDGFGPHSFKVLFESIERDQVRRGVLTAD	significant improvement regarding residual turnover	60	0.235	0.14	
SEQ ID NO:35 (protein, mutant HPPD polypeptide) MADLYENPMGLMGFEFIEFASPTPGTLEPIFEIMGFTKVATHRSKNVHLYRQGEINLILNNEPNSIASYFAAEHGPSVCGMAFRVKDSQKAYNRALELGAQPIHIDTGPMELNLPAIKGIGGAPLYLIDRFGEGSSIYDIDFVYLEGVERNPVGAGLKVIDHLTHNVYRGRMVYWANFYEKLFNFREARYFDIKGEYTGLTSKAMSAPDGMIRIPLNEESSKGAGQIEEFLMQFNGEGIQHVAFLTDDLVKTWDALKKIGMRFMTAPGDEYYEMLEGRLPDHGEPVDQLQARGILLDGSSVEGDKRLLLQIFSEKLMGPVFFEFIQRKGDDGFGPHSFKVLFEQMERDQVRRGVLTAD	increases significantly the turnover and residual turnover	59	0.27	0.158	
SEQ ID NO:36 (protein, mutant HPPD polypeptide) MADLYENPMGLMGFEFIEFASPTPGTLEPIFEIMGFTKVATHRSKNVHLYRQGEINLILNNEPNSIASYFAAEHGPSVCGMAFRVKDSQKAYNRALELGAQPIHIDTGPMELNLPAIKGIGGAPLYLIDRFGEGSSIYDIDFVYLEGVERNPVGAGLKVIDHLTHNVYRGRMVYWANFYEKLFNFREARYFDIKGEYTGLTSKAMSAPDGMIRIPLNEESSKGAGQIEEFLMQFNGEGIQHVAFLTDDLVKTWDALKKIGMRFMTAPGDEYYEMLEGRLPDHGEPVDQLQARGILLDGSSVEGDKRLLLQIFSEQLMGPVFFEFIQRKGDDGFGPHSFKVLFEQMERDQVRRGVLTAD	increases significantly the turnover and residual turnover	66	0.244	0.162	
SEQ ID NO:2 (protein, mutant HPPD polypeptide) MADLYENPMGLMGFEFIEFASPTPGTLEPIFEIMGFTKVATHRSKNVHLYRQGEINLILNNEPNSIASYFAAEHGPSVCGMAFRVKDSQKAYNRALELGAQPIHIDTGPMELNLPAIKGIGGAPLYLIDRFGEGSSIYDIDFVYLEGVERNPVGAGLKVIDHLTHNVYRGRMVYWANFYEKLFNFREARYFDIKGEYTGLTSKAMSAPDGMIRIPLNEESSKGAGQIEEFLMQFNGEGIQHVAFLTDDLVKTWDALKKIGMRFMTAPPDTYYEMLEGRLPDHGEPVDQLQARGILLDGSSVEGDKRLLLQIFSETLMGPVFFEFIQRKGDDGFGPWNFAQLFESIERDQVRRGVLTAD			0.092	0.041	
SEQ ID NO:28 (protein, mutant HPPD polypeptide) MADLYENPMGLMGFEFIEFASPTPGTLEPIFEIMGFTKVATHRSKNVHLYRQGEINLILNNEPNSIASYFAAEHGPSVCGMAFRVKDSQKAYNRALELGAQPIHIDTGPMELNLPAIKGIGGAPLYLIDRFGEGSSIYDIDFVYLEGVERNPVGAGLKVIDHLTHNVYRGRMVYWANFYEKLFNFREARYFDIKGEYTGLTSKAMSAPDGMIRIPLNEESSKGAGQIEEFLMQFNGEGIQHVAFLTDDLVKTWDALKKIGMRFLTAPGDEYYEMLEGRLPDHGEPVDQLQARGILLDGSSVEGDKRLLLQIFSETLMGPVFFEFIQRKGDDGFGPHSFKVLFESIERDQVRRGVLTAD	decreases the turnover and residual turnover	50	0.203	0.102	
